The values that follow are results of earlier work, collected in PMC5266585.

Data set [1] concerns the target LRP1 principal ligand binding region fragments (Homo sapiens) (UniProt Q07954).
For data set [2], the target named is LRP1 CR4-CR5-CR6 (Homo sapiens) (UniProt Q07954).

A word on the Kd: it is the equilibrium constant for the complex coming apart. Consider PAI-1 (from UniProt P05121), for which the Kd in data set [1] is below 3 nM; in data set [2] it was 1.5 nM.
